First the molecules themselves.
B1: Protein O-mannosyl-transferase 1 (Homo sapiens), Q9Y6A1 (parent)
chain: MWGFLKRPVVVTADINLSLVALTGMGLLSRLWRLTYPRAVVFDEVYYGQYISFYMKQIFFLDDSGPPFGHMVLALGGYLGGFDGNFLWNRIGAEYSSNVPVWSLRLLPALAGALSVPMAYQIVLELHFSHCAAMGAALLMLIENALITQSRLMLLESVLIFFNLLAVLSYLKFFNCQKHSPFSLSWWFWLTLTGVACSCAVGIKYMGVFTYVLVLGVAAVHAWHLLGDQTLSNVGADVQCCMRPACMGQMQMSQGVCVFCHLLARAVALLVIPVVLYLLFFYVHLILVFRSGPHDQIMSSAFQASLEGGLARITQGQPLEVAFGSQVTLRNVFGKPVPCWLHSHQDTYPMIYENGRGSSHQQQVTCYPFKDVNNWWIVKDPRRHQLVVSSPPRPVRHGDMVQLVHGMTTRSLNTHDVAAPLSPHSQEVSCYIDYNISMPAQNLWRLEIVNRGSDTDVWKTILSEVRFVHVNTSAVLKLSGAHLPDWGYRQLEIVGEKLSRGYHGSTVWNVEEHRYGASQEQRERERELHSPAQVDVSRNLSFMARFSELQWRMLALRSDDSEHKYSSSPLEWVTLDTNIAYWLHPRTSAQIHLLGNIVIWVSGSLALAIYALLSLWYLLRRRRNVHDLPQDAWLRWVLAGALCAGGWAVNYLPFFLMEKTLFLYHYLPALTFQILLLPVVLQHISDHLCRSQLQRSIFSALVVAWYSSACHVSNTLRPLTYGDKSLSPHELKALRWKDSWDILIRKH
partner: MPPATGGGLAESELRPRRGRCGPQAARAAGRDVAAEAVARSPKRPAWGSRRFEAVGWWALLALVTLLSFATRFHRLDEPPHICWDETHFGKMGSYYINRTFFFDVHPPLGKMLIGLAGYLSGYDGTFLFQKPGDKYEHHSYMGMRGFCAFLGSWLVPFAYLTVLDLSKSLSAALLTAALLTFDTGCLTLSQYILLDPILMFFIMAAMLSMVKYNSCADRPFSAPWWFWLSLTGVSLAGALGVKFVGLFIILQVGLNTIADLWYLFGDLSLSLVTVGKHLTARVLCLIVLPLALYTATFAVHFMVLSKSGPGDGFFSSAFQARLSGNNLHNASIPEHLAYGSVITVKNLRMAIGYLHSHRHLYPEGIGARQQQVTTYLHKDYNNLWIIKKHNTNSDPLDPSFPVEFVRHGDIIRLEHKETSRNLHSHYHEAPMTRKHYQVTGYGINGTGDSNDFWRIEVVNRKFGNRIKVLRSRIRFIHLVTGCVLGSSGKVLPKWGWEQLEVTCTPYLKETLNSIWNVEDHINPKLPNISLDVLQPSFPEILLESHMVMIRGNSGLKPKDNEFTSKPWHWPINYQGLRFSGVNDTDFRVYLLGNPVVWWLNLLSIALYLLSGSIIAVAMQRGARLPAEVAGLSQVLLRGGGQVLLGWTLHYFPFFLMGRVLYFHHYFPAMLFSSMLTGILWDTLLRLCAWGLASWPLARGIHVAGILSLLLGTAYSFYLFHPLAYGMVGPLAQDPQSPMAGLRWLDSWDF

Variants of B1 are the subject of the test. As to conditions: with pomt2_human POMT2, Q9UKY4.
In the case of V428D, the “effect of a mutation on the interaction” value is listed as “with no effect”. For the variant W582C, the “effect of a mutation on the interaction” value is given as “with no effect”.

G65R: the “effect of a mutation on the interaction” value is reported as “with no effect”. Regarding G76R, the “effect of a mutation on the interaction” value is recorded as “with no effect”. Under A200P stands “with no effect”.

The record behind these values is IntAct's records for PubMed 16698797.
